Assay results as given in patent publication US7528226B2, “TGFβ1-inhibitor peptides” (Rojecto de Biomedicina Cima S.L., priority 1998, dated 2009).
No end group written: not given here.

What was measured:
[1] = target: T1, TGFβ1 (Homo sapiens, UniProt P01137); assay type: cell-based; details: TGFβ1 200 pg/ml; for inhibitory activity of TGFβ1 (in words): peptide 200 μg/ml, MV-1-Lu cells; for Bioassay (% inhibition): inhibition of TGFβ1 activity, growth of MV-1-Lu cells, peptide concentration 200 μg/ml
T1 construct: the mature TGFβ1 is released by another cut; purchased R&D Systems Europe Ltd., Abingdon, UK
Procedure: A line derived from mink pulmonary epithelium, MV-1-Lu, was used (CCL-64, American Type Cell Culture, Virginia, USA). The cells were grown in 162 cm^2 culture flasks (Costar Corporation, Cambridge, USA) in a stove at 37° C. and 5% CO2, until subconfluence was attained. A complete medium was used: RPMI 1640 with L-glutamine (GibcoBRL, Life Technologies Ltd., Paisley, Scotland) supplemented with 5% of foetal calf serum (FCS, Biological Industries, Kibbutz Beit Haemek, Israel), 10 mM HEPES (1M HEPES Buffer, Bio-Whittaker, Verviers, Belgium) and antibiotics (100 U/ml penicillin and 100 μ/ml streptomycin).
The MV-1-Lu cells grown as indicated above were removed from the bottom of the culture flasks using 5 ml of trypsin-EDTA (Biological Industries, Kibbutz Beit Haemek, Israel), resuspended in complete medium and centrifuged at 1500 rev/min for 8 minutes. After centrifugation the cells were resuspended in complete medium to a concentration of 50,000 cells/ml. For conducting the test, 10 ml of the cell suspension were taken and dispensed in 96-well, flat-bottom culture plates (Costar Corporation, Cambridge, USA), adding 100 μl/well, and were incubated overnight at 37° C. and 5% CO2, which permits adhesion of the cells to the bottom of the wells. […] The final concentration of FCS in the well was 2.5%. After 24 hours of incubation, 1 μCi of tritiated thymidine was added per well (25 Ci/mmol [methyl-^3H]-thymidine, Amersham Life Science, Buckinghamshire, UK) with incubation for a further 12 hours (Grubeck-Loebenstein B. et al. (1989) J. Clin. Invest. 83:764-770; Brennan F M et al. (1990) Clin. Exp. Immunol. 81:278-285).
At the end of the incubation periods the cells were removed from the bottom of the wells with trypsin-EDTA and were collected using a manual harvester (Titertek cell harvester, Skatron Instruments Inc., Sterling, USA) which ruptures the cells, collecting the DNA in nitrocellulose filters (Filter MAT 11731, Skatron Instruments Inc., Sterling, USA) where it is fixed. The filters were placed individually in 5 ml polypropylene tubes to which 4 ml of scintillation fluid was added (Biogreen-11, Reactivos Scharlau S. A., Barcelona, Spain). The activity of each tube was quantified for 90 seconds in a β LKB scintillation counter (Beta plate system, LKB, Uppsala, Sweden).
TGFβ1 is a cytokine that is able to inhibit the growth in vitro of the MV-1-Lu cell line (Grubeck-Loebenstein B. et al. (1989) J. Clin. Invest. 83:764-770; Brennan F M et al. (1990) Clin. Exp. Immunol. 81:278-285), therefore this line was used for testing the blocking effect of peptides on TGFβ1. After different combinations of media, cells and thymidine, we studied the effect of different concentrations of TGFβ1 on incorporation of [methyl-^3H]thymidine by MV-1-Lu cells in culture, for determining the most suitable conditions for the test. […]
(§1) The synthetic peptides that are potentially inhibitors of TGFβ1 activity, selected as indicated above in the section: selection of the peptides to be synthesized (both those derived from proteins that bind to TGFβ1 itself) were tested using the MV-1-Lu cell line. The selected peptides are soluble in buffered RPMI medium. The peptides were dissolved in buffered RPMI medium, free from foetal calf serum, and the following was used.
The peptides belonging to the sequence of the receptor, or complementary to the peaks of hydrophilicity of TGFβ1, were incubated for 30 minutes in the presence of this cytokine and were then combined with the cell culture. The peptides derived from the sequence of TGFβ1 were added to the cell culture prior to addition of TGFβ1, since they interact with the receptors of the cell surface. These incubations were effected in 100 μl of the same medium as was used for adding the cells. The active peptides permitted cell growth to a greater or lesser degree depending on its ability to inhibit TGFβ1.

[2] = system: TGFβ1 cell receptors; parameters: species or system human; details: inhibition of binding of TGFβ1 to its cell receptors, MV-1-Lu cells; peptide concentration 420 μg/ml
Text: An immunofluorescence kit was used for this (Fluorokine rh TGFβ-biotin, R&D Systems Europe Ltd., Abingdon, UK). This test is based on the capacity of biotinylated TGFβ1 to bind to the cell receptors, in a specific manner, and the subsequent interaction of the biotin with fluorescein-labelled avidin, so that the signal intensity will depend on the quantity of TGFβ1 bound to the cell receptors.
The MV-1-Lu cells grown in 162 cm^2 flasks were removed using solution 1 (described previously) and were resuspended in physiological saline for centrifugation at 500×g for 5 minutes. After centrifugation, the cells were resuspended again in physiological saline at a concentration of 4×10^6 cells/ml. 25 μl of the cell suspension was added to 12×75 mm borosilicate tubes, to which was added the peptide to be tested in 40 μl of RPMI 1640 medium, giving a final concentration of 0.42 μg/μl and 10 μl of biotinylated TGFβ1. […]
At the end of the incubation period, 10 μl of fluorescein-labelled avidin was added, incubating for 30 minutes at 4° C. in darkness, after which 2 ml of a washing solution (RDF1) was added, followed by centrifugation at 500×g for 6 minutes. […] This method permits measurement of the fluorescence emitted by each cell when a laser beam is incident upon it, by means of a computer program (Lisys™ II, Becton Dickinson Immunocytometry Systems, California, USA).
Once the fields had been delimited, the percentage of cells located in each of them was calculated. […]
Peptides derived from previous syntheses, both those that were synthesized from the sequence of TGFβ1 and those from the type III receptor, were used for measuring, by flow cytometry, their capacity to inhibit the binding of TGFβ1 to the cell receptors. In these tests the cells are incubated with the peptide before adding TGFβ1-biotin, which will be detected using avidin-FITC (Material and Methods). Then the fluorescence emitted by the avidin-FITC is measured: this will be directly proportional to the quantity of TGFβ1 bound to the cells and inversely proportional to the activity of the peptide.

[3] = Solubility of the peptides in the test medium; assay type: physicochemical
Procedure: as §1
The effect of the concentration of peptide P12 on inhibition of the activity of TGFβ1 was investigated.
The effect of the concentration of peptide P54 on inhibition of the activity of TGFβ1 was investigated.

T1 sequence (P01137 279-390): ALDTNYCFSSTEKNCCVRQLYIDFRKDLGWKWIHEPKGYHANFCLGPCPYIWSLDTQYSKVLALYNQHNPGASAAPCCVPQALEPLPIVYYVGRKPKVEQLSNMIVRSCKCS

Substance	inhibitory activity of TGFβ1 (in words) [1]	Bioassay (% inhibition) [1] [%]	Cytometry (% inhibition) [2] [%]	dependence of the inhibitory activity on the peptide concentration ([1]; dose-response test)	inhibitory activity of nominal concentrations of peptide, before and after filtration ([1]; dose-response test, filtered vs unfiltered stock)	solubility in the test medium [3]
SNPYSAFQVDIIVDI [P106, SerAsnProTyrSerAlaPheGlnValAspIleIleValAspIle]	had also demonstrated activity	–	–	–	–	–
CDIHVLKQDGFSVLFTKCD (cysteine pairing not given here) [P149]	not found to be active	–	–	–	–	–
CysValAlaValTrpArgLysAsnAspGluAsnIleThrLeuGluThrValCys (CVAVWRKNDENITLETVC; Synthetic peptide from rat TGB beta 1 type III receptor, position 84-101) [P146]	not found to be active	–	–	–	–	–
HANFCLGPCPYIWSL (cysteine pairing not given here) [P11]	–	40	86	–	–	–
LYNQHNPGASAAPCC (cysteine pairing not given here) [P18]	–	18.2	6.5	–	–	–
TSLDATMIWTMM [P54]	capable of inhibiting the activity of TGFβ1 almost completely	97	82.3	inhibit the activity of TGFβ1 in a manner that depends on the dose used	no measurable inhibitory activity in the filtrate	low solubility
